In series [1] the target is Csm2 with a 6-His tag on the N-terminus (Csm2^H6N) (S. epidermidis RP62a). Kind of series: co-purification.
The target in series [2] is recombinant Csm3 (untagged) (S. epidermidis). Nature of the series: native gel or EMSA.
The target of series [3] is Csm5–Smt3 (Csm5 with an N-terminal His10Smt3 tag) (S. epidermidis). Kind of series: pull-down.
The series “native gel or EMSA” concerns the molecule itself. Kind of series: native gel or EMSA. Background: In EMSA bound probe runs differently from free probe, usually more slowly.

This note sets out measurements from article PMC5389561 (Nucleic Acids Research, 2016).

In general, stoichiometry N refers to the number of molecules, sites or subunits per partner or assembly.

On to “Csm3 (wild type, in the Cas10–Csm complex) (natural protein)”, for which, in series [1], the % Csm3 band intensity of the total band intensity of the purified complex is 18%.

“Csm3 D179A (in the Cas10–Csm complex) (natural protein)” had a % Csm3 band intensity of the total band intensity of the purified complex in series [1] of 12%.

For “recombinant Csm3 (untagged) (natural protein)”, the stoichiometry N in series [2] is 6.

B1: recombinant polynucleotide phosphorylase (PNPase), untagged (enzyme, S. epidermidis RP62a, UniProt Q5HPR7 1-701, looked up)
chain: MSQEKKVFKTEWAGRSLTIETGQLAKQANGAVLVRYGDTVVLSTATASKEPRDGDFFPLTVNYEEKMYAAGKIPGGFKKREGRPGDEATLTARLIDRPIRPLFPKGYRHDVQIMNIVLSADPDCSPEMAAMIGSSMALSVSDIPFQGPIAGVNVGYIDGKYVINPSVADKEISRLDLEVAGHKDAVNMVEAGASEITESEMLEAIFFGHEEIKRLVAFQQEIIDHIQPIKQEFVPVERDEDLVEKVKSLTEDKGLKDTVLTFDKQQRDENLDALKEEVVGHFLDEEDPENETLVKEVYAILNDLIKEEVRRLIADEKIRPDGRKVDEIRPLESEVGLLPRAHGSGLFTRGQTQALSVLTLGALGDYQLIDGLGPEVEKRFMHHYNFPNFSVGETGPVRAPGRREIGHGALGERALRYIIPDTQDFPYTIRIVSEVLESNGSSSQASICGSTLALMDAGVPIKAPVAGIAMGLVTRDDSYTILTDIQGMEDALGDMDFKVAGTKDGITAIQMDIKIDGLTREVIEEALEQARQGRLAIMDHMLHTIEQPREELSAYAPKVVTMSINPDKIRDVIGPGGKKINEIIDETGVKLDIEQDGTIFIGAVDQAMINRAKEIIEDITREAEVGQVYHAKVKRIEKYGAFVELFPGKDALLHISQISQERINKVEDVLKIGDTIEVKITEIDKQGRVNASHKVLEQSKN
For the molecule B1, the PNPase signal intensity as % of total signal in the eluate in series [3] worked out at 5.9%. Moreover, the “stoichiometry N” value in the series “native gel or EMSA” is 3.
